Data reported in PMC10072977 (Biochemical and Biophysical Research Communications, 2023).

Molecular target: biotinylated SARS-CoV-2 WT RBD (Kactus Biosystems, CoV-VM4BDB) (SARS-CoV-2, UniProt P0DTC2, biotin)
Experiment: ELISA

B1: rabbit monoclonal antibody (RmAb) 9H1 (antibody, V domains shown)
VH: QSVEESGGRLVTPGTPLTLTCTVSGFSLSRYAMSWVRQAPGKGLEWIGIIVDSGHTAYASWAKGRFTISRTSTTVDLKMTSLTTEDTATYFCARETGGGAFYVFEFWGPGTVVTVSS
VL: QVLTQTPSSVSAAVGGTVTINCQASEDIYDNLVWYQQKPGQPPKLLIYDASTLAFGVSSRFRGSGSGTHFTLTMRDVQCDDAATYYCQGEFSCSSGDCTAFGGGTEVVVK
  binding result: binds
